Earlier results on three substances are cited in paper PMC3433420.

Read-outs that look alike come from different tables or passages of the source.

Details in all cases: cited from earlier work
For series [1], the target named is BLK (Homo sapiens) (UniProt P51451).
Series [2] addresses PLCG2-NC (Homo sapiens) (UniProt P16885).
Series [3] deals with ABL2 (Homo sapiens) (UniProt P42684).
Series [4] deals with PIK3R3-NC (Homo sapiens) (UniProt Q92569).
Series [5] deals with BCAR3 (Homo sapiens) (UniProt O75815).
Chain of BCAR3 (Homo sapiens) (O75815 149-258): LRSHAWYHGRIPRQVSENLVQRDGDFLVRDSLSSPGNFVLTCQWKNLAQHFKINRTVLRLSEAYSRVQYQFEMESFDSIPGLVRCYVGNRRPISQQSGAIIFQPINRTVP
Series [6] has as its target SHC1-PTB (Homo sapiens) (UniProt P29353).
Series [7] concerns the target SYK-NC (Homo sapiens) (UniProt P43405).
For series [8], the target named is NCK2 (Homo sapiens) (UniProt O43639).
Chain of NCK2 (Homo sapiens) (O43639 280-380): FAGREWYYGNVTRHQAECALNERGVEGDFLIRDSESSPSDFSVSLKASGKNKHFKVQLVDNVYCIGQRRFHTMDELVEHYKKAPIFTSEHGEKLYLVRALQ
Series [9] addresses CRKL (Homo sapiens) (UniProt P46109).
Series [10] has as its target RASA1-N (Homo sapiens) (UniProt P20936).
Series [11] concerns the target BCAR3 (Homo sapiens) (UniProt O75815). This is another data set of the same source.
Series [12] has as its target ABL2 (Homo sapiens) (UniProt P42684). This is another data set of the same source.
For series [13], the target named is ABL1 (Homo sapiens) (UniProt P00519).
Series [14] has as its target SHC1 (Homo sapiens) (UniProt P29353).
In series [15] the target is CRKL (Homo sapiens) (UniProt P46109). The source holds these as a separate data set.
Chain of CRKL (Homo sapiens) (P46109 9-107): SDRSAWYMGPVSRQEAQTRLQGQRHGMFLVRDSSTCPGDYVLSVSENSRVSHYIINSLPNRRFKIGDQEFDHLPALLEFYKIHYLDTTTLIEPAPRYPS
Series [16] has as its target TENC1 (Homo sapiens) (UniProt Q63HR2).
Series [17] concerns the target TNS3 (Homo sapiens) (UniProt Q68CZ2).
Series [18] has as its target VAV2 (Homo sapiens) (UniProt P52735).
Series [19] deals with NCK2 (Homo sapiens) (UniProt O43639). The source holds these as a separate data set.
For series [20], the target named is PIK3R2-C (Homo sapiens) (UniProt O00459).
For series [21], the target named is SLA2 (Homo sapiens) (UniProt Q9H6Q3).
Series [22] addresses RASA1-N (Homo sapiens) (UniProt P20936). The source holds these as a separate data set.
For series [23], the target named is PIK3R3-N (Homo sapiens) (UniProt Q92569).
Series [24] concerns the target PIK3R1-N (Homo sapiens) (UniProt P27986).
The target in series [25] is ZAP70-C (Homo sapiens) (UniProt P43403).
Chain of ZAP70-C (Homo sapiens) (P43403 5-259): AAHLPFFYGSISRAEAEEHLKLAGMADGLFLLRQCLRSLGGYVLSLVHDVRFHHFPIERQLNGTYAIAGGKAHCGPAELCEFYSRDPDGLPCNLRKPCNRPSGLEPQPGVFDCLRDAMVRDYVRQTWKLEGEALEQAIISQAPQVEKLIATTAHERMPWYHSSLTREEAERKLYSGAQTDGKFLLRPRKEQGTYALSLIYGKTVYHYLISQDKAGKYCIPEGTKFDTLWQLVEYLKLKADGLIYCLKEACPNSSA
Series [26] has as its target CRK (Homo sapiens) (UniProt P46108).
Series [27] deals with VAV3 (Homo sapiens) (UniProt Q9UKW4).
Chain of VAV3 (Homo sapiens) (Q9UKW4 667-771): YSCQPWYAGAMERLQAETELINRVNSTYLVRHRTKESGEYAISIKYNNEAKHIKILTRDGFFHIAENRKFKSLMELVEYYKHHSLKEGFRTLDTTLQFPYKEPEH
In series [28] the target is TXK (Homo sapiens) (UniProt P42681).
Chain of TXK (Homo sapiens) (P42681 145-251): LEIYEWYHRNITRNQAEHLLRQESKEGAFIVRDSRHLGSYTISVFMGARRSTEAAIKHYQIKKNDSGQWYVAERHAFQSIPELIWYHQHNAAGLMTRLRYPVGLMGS
Series [29] concerns the target PTK6 (Homo sapiens) (UniProt Q13882).
In series [30] the target is SRC (Homo sapiens) (UniProt P12931).
The target in series [31] is PIK3R2-NC (Homo sapiens) (UniProt O00459).
Chain of PIK3R2-NC (Homo sapiens) (O00459 325-721): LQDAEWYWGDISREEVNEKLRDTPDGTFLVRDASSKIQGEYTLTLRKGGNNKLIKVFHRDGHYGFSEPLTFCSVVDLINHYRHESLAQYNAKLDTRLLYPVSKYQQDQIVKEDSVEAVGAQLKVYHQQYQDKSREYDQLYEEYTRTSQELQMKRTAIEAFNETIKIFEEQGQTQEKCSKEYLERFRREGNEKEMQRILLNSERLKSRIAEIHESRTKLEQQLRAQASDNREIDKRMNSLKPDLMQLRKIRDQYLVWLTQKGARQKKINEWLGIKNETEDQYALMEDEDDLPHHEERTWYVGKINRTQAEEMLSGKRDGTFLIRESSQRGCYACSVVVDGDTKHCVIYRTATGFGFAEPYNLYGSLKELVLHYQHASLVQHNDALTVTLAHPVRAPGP
The target in series [32] is PLCG1-C (Homo sapiens) (UniProt P19174).
Chain of PLCG1-C (Homo sapiens) (P19174 545-761): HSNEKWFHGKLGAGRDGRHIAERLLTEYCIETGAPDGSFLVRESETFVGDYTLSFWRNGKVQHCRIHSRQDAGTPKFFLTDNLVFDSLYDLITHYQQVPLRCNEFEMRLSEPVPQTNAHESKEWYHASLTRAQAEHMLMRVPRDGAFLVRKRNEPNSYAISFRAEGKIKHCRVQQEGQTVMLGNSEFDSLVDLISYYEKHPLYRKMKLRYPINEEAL
Series [33] has as its target SLA (Homo sapiens) (UniProt Q13239).
Series [34] has as its target HCK (Homo sapiens) (UniProt P08631).
Series [35] deals with GRB7 (Homo sapiens) (UniProt Q14451).
In series [36] the target is PIK3R1-NC (Homo sapiens) (UniProt P27986).
Chain of PIK3R1-NC (Homo sapiens) (P27986 328-723): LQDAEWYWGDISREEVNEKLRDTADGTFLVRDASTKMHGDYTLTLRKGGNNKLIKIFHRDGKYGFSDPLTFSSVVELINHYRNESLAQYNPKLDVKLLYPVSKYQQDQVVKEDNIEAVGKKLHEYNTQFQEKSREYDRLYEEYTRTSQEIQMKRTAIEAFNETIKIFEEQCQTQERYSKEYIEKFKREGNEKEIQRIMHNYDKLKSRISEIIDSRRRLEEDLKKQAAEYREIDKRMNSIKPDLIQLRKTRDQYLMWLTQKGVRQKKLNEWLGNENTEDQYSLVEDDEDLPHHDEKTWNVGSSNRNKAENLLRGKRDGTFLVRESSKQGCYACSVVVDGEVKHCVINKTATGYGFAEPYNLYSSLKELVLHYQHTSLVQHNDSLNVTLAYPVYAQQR
Series [37] concerns the target VAV1 (Homo sapiens) (UniProt P15498).
For series [38], the target named is SYK-NC (Homo sapiens) (UniProt P43405). The source holds these as a separate data set.
In series [39] the target is SH2B2 (Homo sapiens) (UniProt O14492).
Chain of SH2B2 (Homo sapiens) (O14492 412-520): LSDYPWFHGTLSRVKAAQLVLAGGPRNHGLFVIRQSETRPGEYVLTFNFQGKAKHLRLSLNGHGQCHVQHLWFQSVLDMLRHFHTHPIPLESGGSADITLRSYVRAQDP
Series [40] has as its target SHC3 (Homo sapiens) (UniProt Q92529).
The target of series [41] is PIK3R3-NC (Homo sapiens) (UniProt Q92569). The source holds these as a separate data set.
Series [42] addresses PIK3R2-N (Homo sapiens) (UniProt O00459).
The target of series [43] is PIK3R3-C (Homo sapiens) (UniProt Q92569).
Series [44] deals with NCK1 (Homo sapiens) (UniProt P16333).
Series [45] deals with PLCG1-NC (Homo sapiens) (UniProt P19174).
Chain of PLCG1-NC (Homo sapiens) (P19174 545-761): as the sequence (P19174 545-761) above

Chain of RASA1-N (Homo sapiens) (P20936 176-446): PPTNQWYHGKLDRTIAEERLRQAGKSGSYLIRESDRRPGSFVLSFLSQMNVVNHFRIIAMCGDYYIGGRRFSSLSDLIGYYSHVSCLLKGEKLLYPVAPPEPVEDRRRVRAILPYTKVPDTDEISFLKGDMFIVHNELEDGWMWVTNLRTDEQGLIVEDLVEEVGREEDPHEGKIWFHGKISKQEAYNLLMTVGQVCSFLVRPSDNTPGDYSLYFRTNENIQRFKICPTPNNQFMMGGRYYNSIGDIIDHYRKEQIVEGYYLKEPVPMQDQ
Chain of ABL2 (Homo sapiens) (P42684 168-268): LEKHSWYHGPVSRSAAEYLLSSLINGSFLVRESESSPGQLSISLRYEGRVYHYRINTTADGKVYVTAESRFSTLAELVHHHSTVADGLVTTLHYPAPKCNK
Chain of TNS3 (Homo sapiens) (Q68CZ2 1167-1287): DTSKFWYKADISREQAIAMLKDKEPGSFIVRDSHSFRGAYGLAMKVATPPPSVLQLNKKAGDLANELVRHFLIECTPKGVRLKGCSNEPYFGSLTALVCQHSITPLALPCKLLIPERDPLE
Chain of SLA (Homo sapiens) (Q13239 79-180): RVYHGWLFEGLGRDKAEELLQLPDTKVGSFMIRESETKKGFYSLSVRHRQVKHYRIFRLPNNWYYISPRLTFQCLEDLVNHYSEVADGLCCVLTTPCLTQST
Chain of PTK6 (Homo sapiens) (Q13882 73-175): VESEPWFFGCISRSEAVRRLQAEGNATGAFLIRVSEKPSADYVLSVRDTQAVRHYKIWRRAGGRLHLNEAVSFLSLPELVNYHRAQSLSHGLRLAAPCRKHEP
Chain of CRK (Homo sapiens) (P46108 8-123): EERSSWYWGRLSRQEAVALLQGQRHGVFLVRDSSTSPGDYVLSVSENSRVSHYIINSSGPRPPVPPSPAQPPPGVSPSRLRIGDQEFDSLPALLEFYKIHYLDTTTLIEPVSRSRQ
Chain of VAV1 (Homo sapiens) (P15498 666-770): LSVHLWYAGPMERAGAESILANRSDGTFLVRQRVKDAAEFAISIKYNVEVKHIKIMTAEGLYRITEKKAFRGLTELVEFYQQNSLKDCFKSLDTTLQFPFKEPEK
Chain of SHC3 (Homo sapiens) (Q92529 494-594): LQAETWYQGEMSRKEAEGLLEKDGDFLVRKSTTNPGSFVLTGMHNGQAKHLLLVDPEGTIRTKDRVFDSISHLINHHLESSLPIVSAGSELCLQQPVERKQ
Chain of HCK (Homo sapiens) (P08631 139-246): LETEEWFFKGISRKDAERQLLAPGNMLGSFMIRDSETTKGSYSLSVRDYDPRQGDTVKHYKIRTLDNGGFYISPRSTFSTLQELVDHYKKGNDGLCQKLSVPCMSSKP
Chain of PIK3R1-N (Homo sapiens) (P27986 328-723): as the sequence (P27986 328-723) above
Chain of TENC1 (Homo sapiens) (Q63HR2 1135-1252): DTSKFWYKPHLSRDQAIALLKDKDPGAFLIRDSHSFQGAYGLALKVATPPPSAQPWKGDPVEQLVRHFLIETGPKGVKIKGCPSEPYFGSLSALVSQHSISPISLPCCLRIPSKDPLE
Chain of PIK3R2-N (Homo sapiens) (O00459 325-721): as the sequence (O00459 325-721) above

With …pYSEDPTVPd, the apparent Kd (screen) was 763 nM in [1] and 1060 nM in [2].
With …pYSEAKTPI, the apparent Kd (screen) in [3] was 71 nM; in series [4] it was 2000 nM; in series [5], 1780 nM; in series [6], 2000 nM; in series [7] it was 923 nM; in [8], 2000 nM. For the same substance, the apparent Kd (screen) in [9] was 1760 nM; in [10], 953 nM.
As to …pYAAMGACP, the apparent Kd (screen) in series [11] was 2000 nM; in [12], 147 nM; in series [13], 2000 nM; in series [14], 595 nM; in [15], 435 nM; in series [16], 2000 nM. The apparent Kd (screen) is 1500 nM in [17]; 300 nM in series [18]; 550 nM in series [19]; 926 nM in series [20]; 2000 nM in [21]; 906 nM in series [22]. The apparent Kd (screen) in series [23] was 499 nM; in series [24] it was 528 nM; in series [25] it was 1440 nM; in series [26] it was 264 nM; in [27], 1540 nM; in series [28], 1670 nM. In addition, the apparent Kd (screen) in [29] is 440 nM; in series [30] it was 1500 nM; in series [31], 78 nM; in series [32] it was 689 nM; in [33] it was 2000 nM; in series [34], 581 nM. For the same substance, the apparent Kd (screen) in [35] is 979 nM; in series [36], 55 nM; in [37], 2000 nM; in series [38], 596 nM; in series [39] it was 2000 nM; in series [40], 636 nM. Moreover, the apparent Kd (screen) is 14 nM in series [41]; 120 nM in series [42]; 499 nM in series [43]; 208 nM in series [44]; 720 nM in [45].
